Source: paper doi:10.1101/2024.01.16.575844

Target: C3b (human) (UniProt P01024)
Test: radioligand binding

Chain of UniProt P01024 (P01024 whole entry, looked up): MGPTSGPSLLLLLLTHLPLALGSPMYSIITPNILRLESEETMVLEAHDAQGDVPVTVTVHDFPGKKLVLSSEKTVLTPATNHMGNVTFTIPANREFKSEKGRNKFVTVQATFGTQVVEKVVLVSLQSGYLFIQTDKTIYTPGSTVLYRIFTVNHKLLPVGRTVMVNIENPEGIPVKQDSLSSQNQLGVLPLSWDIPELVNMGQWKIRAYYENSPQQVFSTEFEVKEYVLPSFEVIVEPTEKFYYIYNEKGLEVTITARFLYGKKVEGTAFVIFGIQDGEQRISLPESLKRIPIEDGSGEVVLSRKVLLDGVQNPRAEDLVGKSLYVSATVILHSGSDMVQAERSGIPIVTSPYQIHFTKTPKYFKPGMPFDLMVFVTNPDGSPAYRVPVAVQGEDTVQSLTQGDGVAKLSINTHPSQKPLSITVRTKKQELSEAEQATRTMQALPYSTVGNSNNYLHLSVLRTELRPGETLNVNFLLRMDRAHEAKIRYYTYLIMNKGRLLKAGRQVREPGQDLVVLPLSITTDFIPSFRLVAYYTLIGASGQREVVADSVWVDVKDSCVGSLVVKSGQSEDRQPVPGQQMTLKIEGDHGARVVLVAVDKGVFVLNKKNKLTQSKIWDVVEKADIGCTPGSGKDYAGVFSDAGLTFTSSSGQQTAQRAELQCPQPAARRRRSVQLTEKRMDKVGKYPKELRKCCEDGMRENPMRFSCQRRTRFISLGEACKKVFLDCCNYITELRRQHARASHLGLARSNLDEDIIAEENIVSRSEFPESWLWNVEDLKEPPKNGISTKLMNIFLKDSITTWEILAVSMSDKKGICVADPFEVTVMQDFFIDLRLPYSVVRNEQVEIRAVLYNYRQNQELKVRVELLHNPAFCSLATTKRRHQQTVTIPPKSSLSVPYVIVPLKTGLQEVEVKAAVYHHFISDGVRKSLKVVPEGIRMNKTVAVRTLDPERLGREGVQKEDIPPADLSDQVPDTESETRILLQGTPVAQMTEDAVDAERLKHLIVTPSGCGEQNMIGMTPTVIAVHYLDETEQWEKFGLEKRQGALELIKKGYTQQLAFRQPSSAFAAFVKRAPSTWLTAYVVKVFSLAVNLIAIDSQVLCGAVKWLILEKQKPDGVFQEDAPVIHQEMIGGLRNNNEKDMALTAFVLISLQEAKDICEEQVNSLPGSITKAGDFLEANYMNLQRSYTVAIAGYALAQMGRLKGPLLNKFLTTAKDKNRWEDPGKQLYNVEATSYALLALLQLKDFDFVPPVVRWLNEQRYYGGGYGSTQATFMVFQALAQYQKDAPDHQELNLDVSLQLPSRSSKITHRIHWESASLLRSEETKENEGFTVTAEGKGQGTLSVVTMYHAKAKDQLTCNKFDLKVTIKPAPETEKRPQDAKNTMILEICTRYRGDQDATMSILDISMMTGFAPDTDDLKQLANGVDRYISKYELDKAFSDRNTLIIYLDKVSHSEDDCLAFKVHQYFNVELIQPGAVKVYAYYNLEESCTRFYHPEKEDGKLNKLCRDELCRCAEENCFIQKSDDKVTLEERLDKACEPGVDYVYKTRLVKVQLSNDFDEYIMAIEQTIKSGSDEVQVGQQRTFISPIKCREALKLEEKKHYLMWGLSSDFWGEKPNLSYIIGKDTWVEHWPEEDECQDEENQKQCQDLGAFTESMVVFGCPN

binding in 5 mM EDTA as percent of that in 0.2 mM Mg2+: 60 to 70%
percent by which binding in 5 mM Mg2+ exceeds that in 0.02 mM Mg2+: 50%
percent inhibition of 125I-labelled factor B binding to C3b-thiol Sepharose: 100%
Substance: complement factor B (natural protein)
